# The supplement of paper PMC10598134
# ± gives the standard deviation.
# Assay: collision cross section of modified peptide (TIMS, N2, iRT-aligned); higher = larger / more extended gas-phase ion
# Method in brief: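 Collision cross section values rest on the Mason-Schamp equation applied to calibrated, run-aligned mobility data from synthetic peptides. Mobility (1/K0) was calibrated with three reference ions and aligned per run to the median iRT peptide deviation, and 1–3 technical replicates of the most abundant feature per charge state were averaged. Data came from a timsTOF Pro/HT in dda-PASEF mode (nitrogen, ~2.4 mbar) after a 120-min nanoflow C18 gradient at 60 °C.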
# [1] = charge state: 2, modification: Citrullination (R)
# [2] = charge state: 3, modification: Citrullination (R)
# [3] = charge state: 3, modification: Methyl (R)
# [4] = charge state: 2, modification: Acetyl (K)
# [5] = charge state: 2, modification: Biotin
# [6] = charge state: 2, modification: Butyryl
# [7] = charge state: 2, modification: Crotonyl
# [8] = charge state: 2, modification: Glutarylation
# [9] = charge state: 2, modification: GlyGly (K)
# [10] = charge state: 3, modification: GlyGly (K)
# [11] = charge state: 2, modification: Malonyl
# [12] = charge state: 3, modification: Methyl (K)
# [13] = charge state: 2, modification: Succinyl
# [14] = charge state: 2, modification: hydroxyisobutyryl
# [15] = charge state: 3, modification: Biotin
sequence,measurement,setting,value
GSGLGARGSSYGVTSTESYK [_GSGLGAR(Citrullination (R))GSSYGVTSTESYK_],collision cross section,[1],458.29 ± 0.18 Å²
same,collision cross section,[2],548.1 Å²
GSGLGARGSSYGVTSTESYK [_GSGLGAR(Methyl (R))GSSYGVTSTESYK_],collision cross section,[3],519.94 ± 0.91 Å²
GSHGQTPSPGALPLGR [_GS(HexNAc (ST))HGQTPSPGALPLGR_],collision cross section,"charge state: 3, modification: HexNAc (ST)",494.18 ± 4.8 Å²
GSIGFPGFPGANGEKGGR [_GSIGFP(Hydroxyproline)GFPGANGEKGGR_],collision cross section,"charge state: 3, modification: Hydroxyproline",489.41 ± 4 Å²
GSLEKGSPEDK [_GSLEK(Acetyl (K))GSPEDK_],collision cross section,[4],363.99 ± 0.16 Å²
GSLEKGSPEDK [_GSLEK(Biotin)GSPEDK_],collision cross section,[5],382.87 Å²
GSLEKGSPEDK [_GSLEK(Butyryl)GSPEDK_],collision cross section,[6],371.66 ± 0.71 Å²
GSLEKGSPEDK [_GSLEK(Crotonyl)GSPEDK_],collision cross section,[7],371.77 ± 0.26 Å²
GSLEKGSPEDK [_GSLEK(Dimethyl (K))GSPEDK_],collision cross section,"charge state: 2, modification: Dimethyl (K)",362.2 ± 0.83 Å²
same,collision cross section,"charge state: 3, modification: Dimethyl (K)",433.68 ± 2.1 Å²
GSLEKGSPEDK [_GSLEK(Formyl)GSPEDK_],collision cross section,"charge state: 2, modification: Formyl",358.29 ± 0.88 Å²
GSLEKGSPEDK [_GSLEK(Gluratylation)GSPEDK_],collision cross section,[8],373.46 ± 0.99 Å²
GSLEKGSPEDK [_GSLEK(GlyGly (K))GSPEDK_],collision cross section,[9],367.44 ± 0.9 Å²
same,collision cross section,[10],425.67 ± 1.6 Å²
GSLEKGSPEDK [_GSLEK(Malonyl)GSPEDK_],collision cross section,[11],365.48 ± 0.011 Å²
GSLEKGSPEDK [_GSLEK(Methyl (K))GSPEDK_],collision cross section,"charge state: 2, modification: Methyl (K)",357.31 ± 0.34 Å²
same,collision cross section,[12],434.75 ± 5.3 Å²
GSLEKGSPEDK [_GSLEK(Propionyl)GSPEDK_],collision cross section,"charge state: 2, modification: Propionyl",368.76 ± 0.94 Å²
GSLEKGSPEDK [_GSLEK(Succinyl)GSPEDK_],collision cross section,[13],366.43 ± 0.51 Å²
GSLEKGSPEDK [_GSLEK(Trimethyl (K))GSPEDK_],collision cross section,"charge state: 2, modification: Trimethyl (K)",363.82 ± 0.64 Å²
same,collision cross section,"charge state: 3, modification: Trimethyl (K)",436.7 ± 2.4 Å²
GSLEKGSPEDK [_GSLEK(hydroxyisobutyryl)GSPEDK_],collision cross section,[14],376.24 ± 0.91 Å²
GSLGAQKLANTCFNEIEK [_GSLGAQK(Acetyl (K))LANTCFNEIEK_],collision cross section,[4],470.8 Å²
GSLGAQKLANTCFNEIEK [_GSLGAQK(Biotin)LANTCFNEIEK_],collision cross section,[15],538.06 ± 0.96 Å²
GSLGAQKLANTCFNEIEK [_GSLGAQK(Butyryl)LANTCFNEIEK_],collision cross section,[6],475.25 ± 0.74 Å²
GSLGAQKLANTCFNEIEK [_GSLGAQK(Gluratylation)LANTCFNEIEK_],collision cross section,[8],469.86 Å²
GSLGAQKLANTCFNEIEK [_GSLGAQK(GlyGly (K))LANTCFNEIEK_],collision cross section,[9],500.39 ± 1.8 Å²
same,collision cross section,[10],528.63 ± 18 Å²
GSLGAQKLANTCFNEIEK [_GSLGAQK(Malonyl)LANTCFNEIEK_],collision cross section,[11],466.18 Å²
same,collision cross section,"charge state: 3, modification: Malonyl",511.38 Å²
GSLGAQKLANTCFNEIEK [_GSLGAQK(Methyl (K))LANTCFNEIEK_],collision cross section,[12],509.24 Å²
GSLGAQKLANTCFNEIEK [_GSLGAQK(Succinyl)LANTCFNEIEK_],collision cross section,[13],470.21 ± 0.66 Å²
GSLGAQKLANTCFNEIEK [_GSLGAQK(hydroxyisobutyryl)LANTCFNEIEK_],collision cross section,[14],476.97 ± 0.8 Å²
GSRGFPGEK [_GSRGFP(Hydroxyproline)GEK_],collision cross section,"charge state: 2, modification: Hydroxyproline",330.58 ± 0.79 Å²
GSYLGGYSAGRGIYSR [_GSYLGGYSAGR(Citrullination (R))GIYSR_],collision cross section,[1],429.9 ± 0.2 Å²
same,collision cross section,[2],475.97 ± 0.76 Å²
GSYLGGYSAGRGIYSR [_GSYLGGYSAGR(Methyl (R))GIYSR_],collision cross section,[3],481.98 Å²
GTGRGGGGGGGGGAPR [_GTGR(Citrullination (R))GGGGGGGGGAPR_],collision cross section,[1],349.34 ± 0.64 Å²
GTGRGGGGGGGGGAPR [_GTGR(Methyl (R))GGGGGGGGGAPR_],collision cross section,[3],445.93 ± 3.2 Å²
GTISAPGKVVTAAAQAK [_GTISAPGK(Acetyl (K))VVTAAAQAK_],collision cross section,[4],440.91 ± 2.6 Å²
same,collision cross section,"charge state: 3, modification: Acetyl (K)",515.28 ± 2 Å²
GTISAPGKVVTAAAQAK [_GTISAPGK(Biotin)VVTAAAQAK_],collision cross section,[5],458.66 ± 0.47 Å²
same,collision cross section,[15],550.8 ± 0.34 Å²
GTISAPGKVVTAAAQAK [_GTISAPGK(Butyryl)VVTAAAQAK_],collision cross section,[6],447.93 ± 0.25 Å²
same,collision cross section,"charge state: 3, modification: Butyryl",519.35 ± 2.9 Å²
GTISAPGKVVTAAAQAK [_GTISAPGK(Crotonyl)VVTAAAQAK_],collision cross section,[7],447.33 ± 0.83 Å²
same,collision cross section,"charge state: 3, modification: Crotonyl",518.96 ± 1.2 Å²
